Experimental findings from patent publication US20210284695A1, “FOLDED AND PROTEASE-RESISTANT POLYPEPTIDES” (UNIVERSITY OF WASHINGTON, priority 2017, published 2021) are described below.

The format of this data set is physicochemical. Here is the method: FIG. 2. Biophysical characterization of designed minimal proteins. (A) Design models and NMR solution ensembles for designed minimal proteins. (B) Far-ultraviolet circular dichroism (CD) spectra at 25° C. (black), 95° C. (red), and 25° C. following melting (blue). (C) Thermal melting curves measured by CD at 220 nm. Melting temperatures determined using the derivative of the curve. (D) Chemical denaturation in GuHCl measured by CD at 220 nm and 25° C. Unfolding free energies determined by fitting to a two-state model (red solid line).
Far-ultraviolet CD measurements were carried out with an AVIV spectrometer, model 420. Wavelength scans were measured from 260 to 195 nm at 25 and 95° C. Temperature melts monitored dichroism signal at 220 nm in steps of 2° C./minute with 30 s of equilibration time. […] The GuHCl concentration was determined by refractive index in PBS buffer. The denaturation process monitored dichroism signal at 220 nm in steps of 0.2 M GdmCl with 1 minute mixing time for each step, at 25° C. Protein concentrations were determined by absorbance at 280 nm measured using a NanoDrop™ spectrophotometer (Thermo Scientific) using predicted extinction coefficients (65). Protein concentrations for designs lacking aromatic amino acids were measured by Qubit™ protein assay (ThermoFisher Scientific). […]

Take “TTVKGDIKVTFDNPEKAKKYAQKLAKIYQLTVHVHGDTIHVK [EEHEE_rd3_1049]”: the “stability of purified design (CD, in words)” value was “very stable”.
